Assay results as given in the supplement of paper PMC12042874.
± gives the uncertainty stated by the source.

experiment: amyloid nucleation score (Sup35N fusion, yeast selection) (log enrichment); library NNK3; higher = more nucleation; inactive = no reads after selection
How it was run: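 DiMSum was used to calculate nucleation scores as log enrichment of output over input reads, centred on the mode score of non-aggregating sequences. Sequences with fewer than 100 input reads were not scored. Input and output came from Illumina sequencing of plasmid inserts in psi-negative yeast expressing peptides of 20 random codons fused to Sup35N, induced 24 hours with 100 μM copper sulfate and then grown 7 days at 30°C on medium lacking adenine and uracil.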

| Substance | amyloid nucleation score |
| --- | --- |
| LFNGFVDTMESIVSFDNTSY | inactive |
| ASGSFKPFFSVEWYLS | inactive |
| KKKAGLGRDWYWTVFLMVLS | inactive |
| VWMVCSPSGIRLANSFVVDI | inactive |
| PIYDRFTSKIACLNMMVDLR | 0.101 ± 0.29 |
| TVHNKMPHRLWNCTTLE | inactive |
| IECRARRSVCLL | inactive |
| AKFARYSTYLPLLSVHDIND | inactive |
| RLNCNYTFLLNTIHSPWCCC | inactive |
| LMIVLKLP | inactive |
| VYHTYVVLMGGHLPTSLGVT | 1.8 ± 0.078 |
| VVERKGRSKKLVFVCLLILW | inactive |
| NLYMDEHHFKAFNGCTNQLI | inactive |
| LRQGWILVA | inactive |
| RDCICSRYIYGLRLSVLIWN | -0.44 ± 0.66 |
| SYYYPNIVRIEHPHCTRHHA | inactive |
| SMDTSTPTIV | inactive |
| KHVMLCCNFRKLHSATHKRT | inactive |
| QLNGCHWCTMLSVVFCSRGV | 2.72 ± 0.069 |
| YTSRFSSCLWESRSDEGRNM | inactive |
| WGFRWNKCLNLAQPWLMALS | inactive |
| WIGSRGHQCPYRSSVTMMGT | inactive |
| LYSAAVVNGGLCDRL | inactive |

| Substance | amyloid nucleation score |
| --- | --- |
| DNKLDNRYLGYRFRCTTFHF | inactive |
| ETRMGTK | inactive |
| YLLFIWSAYENKVGIGYITE | inactive |
| CASLCHSSGVCRD | inactive |
| SKARQEL | inactive |
| RFRKG | inactive |
| CMLSPV | inactive |
| GLRKMRGLTQ | inactive |
| MPYMW | 0.73 ± 0.29 |
| FCRCKLFFAGCF | 1.08 ± 0.13 |
| FWGSTWSLRVL | inactive |
| YTIPSPVGLVLDSPVEIRDL | inactive |
| CSYYFQLNMVSKECPRS | 0.562 ± 0.14 |
| ISIVKGCAFGLLSTFMATPS | 0.079 ± 0.75 |
| IQNSRNNKHYATFGTQFFMS | inactive |
| NVLQYYNRLGTSRCIRAAFL | inactive |
| GNMKQWSIPPHIWTGQPPLM | inactive |
| LPLADLKGMASASFKDGKVF | inactive |
| YQKFNKLRLRNLPHLYDFVL | inactive |
| IKCVCFLCPNQ | 1.02 ± 0.19 |
| SYFNRYRCSSCHKPGYDHTW | inactive |
| NLEFFCKDV | inactive |
| SKDGSSSTRQVTIVGRVLVF | inactive |

| Substance | amyloid nucleation score |
| --- | --- |
| GRDAVLI | -0.785 ± 1.1 |
| SRYQMGYKCFMSWHHTGHFN | inactive |
| GYYYNSMNFRWFIKMVVMVR | inactive |
| VYRFGMVLRNVHLFRLLIGG | inactive |
| VKNVIRGIKAQKVGGDESLC | inactive |
| NNGSSRYMWSSYFLVGY | inactive |
| HEWATWRDVLQVTTFFVLHM | inactive |
| NYFCDIFNLSVNSILNYY | 0.68 ± 0.19 |
| TAVKTGGLLRVVALGNSLNA | 0.399 ± 0.24 |
| YMACGHVAGPVH | inactive |
| LVASSRW | inactive |
| VIGVCFSKFWWNTHDTRSDS | 0.665 ± 0.23 |
| PVITSYSSIYVSCDIVW | inactive |
| CSISSKIFLLLMNWLCWSCG | inactive |
| NIHFSITAQ | inactive |
| LDQPGPDNLNVVNKLNFDWH | 0.419 ± 0.26 |
| YIDTW | inactive |
| RGSDEDGYLG | 0.003 ± 0.7 |
| YSYNKFAVEVYLSSLHPEMM | inactive |
| VTKAWMCYYLLLYVWDEGRA | inactive |
| AREYDWQDYILVSVMYTLVW | inactive |
| DVFVHHDM | inactive |
| TKGFTSLSTIFFKVNKFD | inactive |

| Substance | amyloid nucleation score |
| --- | --- |
| RTSVISISSLILALRGLYSR | inactive |
| ISDHTLAGIIFC | inactive |
| LYICTIVYYGQSNRYMFAGQ | inactive |
| DLLWLLFGLTSDLQFFIRYK | inactive |
| WTGLLLCVF | -0.093 ± 0.85 |
| DRYYDSLC | inactive |
| SATFRSSVTLSRHPVNNLTP | 1.35 ± 0.082 |
| HSIGPVIKRCCVIFSLR | inactive |
| FFISVLFWNPGISFRITIAA | inactive |
| NRSTLYSSLCGYRVRENISW | 1.4 ± 0.097 |
| FIYASCDNHKIDKRYVYLLM | inactive |
| NFSTRTGIITIGFCRVCGMR | 1.97 ± 0.096 |
| LIALNYVWYTAQ | inactive |
| GPVLGSCIRRH | inactive |
| FRNSLQ | -0.725 ± 1.1 |
| MGAANSWETDKF | inactive |
| RVPCNETELCMFYRSGLLLL | inactive |
| IWTDDWFFVAVSDGKVSRLV | inactive |
| HCNEYSGNVVSRG | inactive |
| IHILFGTSWLMTRLFCLVK | inactive |
| TCMPRFSALYICSGTLDKKL | inactive |
| IEGSKSDNIGIVHDFMFES | inactive |
| MTRVYLMNFVLQLASTSQDS | 2.54 ± 0.065 |

| Substance | amyloid nucleation score |
| --- | --- |
| LVNTCKNSFLVVLHF | 2.09 ± 0.065 |
| TQCSNTGCCIEGNLT | inactive |
| PKISFSGWM | inactive |
| NASNHSVSTRCVVDRG | inactive |
| CNFQYILCRIM | 2.15 ± 0.057 |
| LAVALIIRMSYLELGLLNPT | inactive |
| QFFSISIFTWVYLVENVADI | inactive |
| TVSYRTTIWWRSINFNRRAL | inactive |
| YNNSTFYTEPTLWD | inactive |
| SSRTCK | inactive |
| VTFAARLTYKSILDILCMME | inactive |
| RSSDYNRLHRSFSCNG | inactive |
| YNMYQTHLSSYNYHQDATKN | 1.7 ± 0.095 |
| AIRKL | inactive |
| DIAREVCSTCLKV | inactive |
| FLRPV | inactive |
| YLWGGLRMYCRKLQHYFVLS | inactive |
| HTYLLLRDNLLFTVIHTPRN | 2.02 ± 0.075 |
| GPLESIFNQFAVIATVPRVW | inactive |
| VKDGTLCWCRAPFRCCRMPI | -0.426 ± 1.1 |
| GEYMRLYVSVTGYTVYYSVR | 0.882 ± 0.2 |
| VSKVKSNPPYITDEIVFCRR | inactive |
| LNSVKAGFINTKDPVMDSMC | -0.254 ± 0.84 |

| Substance | amyloid nucleation score |
| --- | --- |
| RFIISCQRYVETTT | inactive |
| IMGTYKSDLVAARFRFYV | inactive |
| GCIVFCCRTLVNFDVVVYWF | inactive |
| PIILKIPV | inactive |
| EVGDPMYRTIGVKFGPLAME | inactive |
| SCRCR | inactive |
| FITFLLVVFSKKCVNAK | inactive |
| RLEFKESRMGLLVLGDN | inactive |
| GQFCCVCARIKLCRYSFNCY | 2.45 ± 0.082 |
| MGFASSLSWSL | inactive |
| IRVSVVRSICMQSGRCEYQA | 1.21 ± 0.15 |
| TKSYSMVSPIRVLNTDLIY | inactive |
| YITKLTGWTIE | inactive |
| LDKCNHS | inactive |
| FSCSDLWGRSTLDKGYSFFR | inactive |
| SAKSRFSRIVSRFYHMVICA | inactive |
| FCRHVKFYRMRAACVDNRRI | inactive |
| VLCFI | inactive |
| YPCYLLMGAVLSKPYLTSYV | inactive |
| IITSLK | 0.154 ± 0.27 |
| NNERITWERDIRSRCFPVLV | inactive |
| YGYSTSFSG | 0.586 ± 0.28 |
| QWTQFIELLCYCYG | 1.87 ± 0.11 |

| Substance | amyloid nucleation score |
| --- | --- |
| LIKSSRLCLPKYTGVCNSHK | -0.189 ± 0.88 |
| CLFYLCRARMMFNWPSCTRG | 0.933 ± 0.22 |
| TIYLDNTQLSLFRIGPVARR | 1.9 ± 0.094 |
| DRHLAINERARLVAWFYYDF | inactive |
| GLSMLGGLNDSRTCSLVSNV | inactive |
| SPPSQYSVDQIFHMSWLVYY | inactive |
| GGCLGICTAANLRSGNRITR | inactive |
| NYGPGHRGGSN | inactive |
| RCQRVGI | inactive |
| DTEVHQNRFRMFGACDRERK | inactive |
| TVTCRVQRHLDLN | inactive |
| HALNSCDEFGTVMELCSCGS | inactive |
| LAYYRPRQEWVPCNSVGLK | inactive |
| GFEVNKACQLIEYPLFFTRL | inactive |
| LRFGHHMGYEWHLSRKVGSK | inactive |
| LANFHDITWWTWMTSHTGGS | inactive |
| CRCDFFDSKAAPIGGGNNVL | inactive |
| VNVEFLASVFPWNISKKCEQ | inactive |
| FTLLVMS | inactive |
| LGQFDTDTLAHDSMGAGNAV | 1.24 ± 0.16 |
| LYRWHNLFGYTNVSSIQKYG | inactive |
| DRYMRLCVFGYKYVSYG | inactive |
